# Results as given in patent publication US20230110287A1 (SCOUT BIO, published 2023).
# B1: caninized anti-NGF monoclonal antibody SCB01 (antibody, V domains shown)
# VH: EVTLQESGPGLVKPSQTLSLTCVVSGLSLTNNNVNWVRQRPGRGLEWMGGVWAGGATDYNSALKSRISITRDTAKNQVSLQLSSMTTEDTAVYYCARDGGYSSSTLYAMDAWGQGTLVTVSS
# VL: EIVMTQSPASLSLSQEEKVTITCRASEDIYNALAWYQQKPGQAPKLLIYNTDTLHTGVPSRFSGSGSGTDYSFTISSLEPEDVAVYFCQHYFHYPRTFGAGTKVELK
# B2: felinized anti-NGF monoclonal antibody Fe1 (antibody, V domains shown)
# VH: QVQLMESGADLVQPSESLRLTCVASGLSLTNNNVNWVRQAPGKGLEWMGGVWAGGATDYNSALKSRLTITRDTSKNTVFLQMHSLQSEDTATYYCARDGGYSSSTLYAMDAWGQGTTVTVSA
# VL: DIEMTQSPLSLSATPGETVSISCRASEDIYNALAWYLQKPGRSPRLLIYNTDTLHTGVPDRFSGSGSGTDFTLKISRVQTEDVGVYFCQHYFHYPRTFGQGTKLELKR
# notes: Expressed in CHO cells
# How the values were obtained:
# mouse (murine) NGF [1] = target: T1, mouse (murine) NGF (mouse, UniProt P01139 122-241, limits assumed); assay: ELISA on murine NGF, Abs 450
# T1 construct: also called muNGF; beta muNGF
# [2] = target: NGF (added at 10 ng/mL to TF-1 cell cultures); assay: cell-based or functional assay
# mouse (murine) NGF [3] = target: T1, mouse (murine) NGF; assay: ELISA on plate-coated murine NGF (0.1 ug/ml), detection with goat anti-feline IgG-HRP, Abs 450
# Procedure: ELISA plates were coated with 0.1 μg/ml mouse (murine) NGF (muNGF) and blocked with PBS/0.05% Tween 20/1% BSA. muNGF-coated wells were then incubated for 1 hour at room temperature with antibody preparations, diluted in PBS/0.05% Tween 20/1% BSA (100 μl/well). Antibody concentrations ranging from 100 ng/ml to 1.56 ng/ml were used to establish a binding curve. After washing, the plates were incubated with a 1/5,000 dilution of goat anti-feline IgG-HRP in PBS/0.05% Tween 20/1% BSA. Plates were washed with PBS/0.05% Tween 20 and developed by the addition of TMB substrate. Development was stopped by the addition of 2M H₂SO₄, absorbance read at 450 nm and background values were subtracted from the absorbance readings.
# T1 sequence (P01139 122-241 limits assumed): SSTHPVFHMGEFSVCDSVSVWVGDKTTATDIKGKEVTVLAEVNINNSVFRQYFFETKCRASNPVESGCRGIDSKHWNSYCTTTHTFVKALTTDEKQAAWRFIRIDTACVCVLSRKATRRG
# Sequence of NGF (added at 10 ng/mL to TF-1 cell cultures) (P01138 122-241): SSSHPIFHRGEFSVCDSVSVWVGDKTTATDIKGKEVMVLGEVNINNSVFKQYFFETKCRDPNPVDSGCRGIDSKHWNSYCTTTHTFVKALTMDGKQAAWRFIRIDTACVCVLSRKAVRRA
Binder,binding result (mouse (murine) NGF [1]),"IC50 (read off the curve), NGF-driven TF-1 cell proliferation [2] [µg/mL]",binding result (mouse (murine) NGF [3])
B1,binds,–,–
B2,–,~0.05,binds
